Where two headings read alike, the source gives them in different places.
How the values were obtained:
[1] = biological target: T1, 4H993-AA; assay: two-hybrid library CCmax;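 also: natural log of median RNA to DNA barcode read ratio; higher means stronger binding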
T1 chain: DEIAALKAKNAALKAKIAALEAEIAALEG

[2] = biological target: T2, 4H906-AA; assay: two-hybrid library CCmax;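 also: natural log of median RNA to DNA barcode read ratio; higher means stronger binding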
T2 chain: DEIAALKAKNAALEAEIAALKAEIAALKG

[3] = biological target: T3, 4H94-AA; assay: two-hybrid library CCmax;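 also: natural log of median RNA to DNA barcode read ratio; higher means stronger binding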
T3 chain: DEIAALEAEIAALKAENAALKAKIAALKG

[4] = biological target: T4, 4H710-AA; assay: two-hybrid library CCmax;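 also: natural log of median RNA to DNA barcode read ratio; higher means stronger binding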
T4 chain: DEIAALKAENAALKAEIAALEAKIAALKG

[5] = biological target: T5, 4H536-AA; assay: two-hybrid library CCmax;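 also: natural log of median RNA to DNA barcode read ratio; higher means stronger binding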
T5 chain: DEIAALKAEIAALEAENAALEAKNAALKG

[6] = biological target: T6, 4H745-AA; assay: two-hybrid library CCmax;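 also: natural log of median RNA to DNA barcode read ratio; higher means stronger binding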
T6 chain: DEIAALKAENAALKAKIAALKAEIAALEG

[7] = biological target: T7, 4H930-AA; assay: two-hybrid library CCmax
T7 chain: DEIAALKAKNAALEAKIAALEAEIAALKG

[8] = biological target: T8, 4H909-AA; assay: two-hybrid library CCmax
T8 chain: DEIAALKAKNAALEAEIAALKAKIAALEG

[9] = biological target: T9, 4H891-AA; assay: two-hybrid library CCmax
T9 chain: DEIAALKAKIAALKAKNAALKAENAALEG

[10] = biological target: T10, 4H850-AA; assay: two-hybrid library CCmax
T10 chain: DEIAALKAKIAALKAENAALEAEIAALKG

[11] = biological target: T11, 4H797-AA; assay: two-hybrid library CCmax; details: mean of both orientations
T11 chain: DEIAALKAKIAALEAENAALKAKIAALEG

[12] = biological target: T12, 4H570-AA; assay: two-hybrid library CCmax
T12 chain: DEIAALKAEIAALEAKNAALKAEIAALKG

[13] = biological target: T13, 4H629-AA; assay: two-hybrid library CCmax
T13 chain: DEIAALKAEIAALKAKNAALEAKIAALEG

[14] = biological target: T14, 4H485-AA; assay: two-hybrid library CCmax
T14 chain: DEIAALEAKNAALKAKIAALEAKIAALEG

[15] = biological target: T15, 4H881-AA; assay: two-hybrid library CCmax
T15 chain: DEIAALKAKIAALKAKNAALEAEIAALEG

[16] = biological target: T16, 4H780-AA; assay: two-hybrid library CCmax
T16 chain: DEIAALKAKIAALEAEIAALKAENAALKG

[17] = biological target: T17, 4H566-AA; assay: two-hybrid library CCmax
T17 chain: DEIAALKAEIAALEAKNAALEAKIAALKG

[18] = biological target: T18, 4H717-AA; assay: two-hybrid library CCmax; details: mean of both orientations
T18 chain: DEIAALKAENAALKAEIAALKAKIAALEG

[19] = biological target: T19, 4H794-AA; assay: two-hybrid library CCmax
T19 chain: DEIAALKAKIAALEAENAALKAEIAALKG

[20] = biological target: T20, 4H605-AA; assay: two-hybrid library CCmax
T20 chain: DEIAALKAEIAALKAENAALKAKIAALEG

[21] = biological target: T21, 4H678-AA; assay: two-hybrid library CCmax
T21 chain: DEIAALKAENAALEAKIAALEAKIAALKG

[22] = biological target: T22, 4H48-AA; assay: two-hybrid library CCmax; details: mean of both orientations
T22 chain: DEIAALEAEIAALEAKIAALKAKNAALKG

[23] = biological target: T23, 4H454-AA; assay: two-hybrid library CCmax; details: mean of both orientations
T23 chain: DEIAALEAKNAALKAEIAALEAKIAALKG

[24] = biological target: T24, 4H429-AA; assay: two-hybrid library CCmax
T24 chain: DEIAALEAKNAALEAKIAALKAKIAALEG

[25] = biological target: T25, 4H63-AA; assay: two-hybrid library CCmax
T25 chain: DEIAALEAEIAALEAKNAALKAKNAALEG

[26] = biological target: T26, 4H918-bN; assay: two-hybrid library CCNG1
T26 chain: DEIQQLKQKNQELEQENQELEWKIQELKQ

[27] = biological target: T27, 4H906-bA; assay: two-hybrid library CCNG1
T27 chain: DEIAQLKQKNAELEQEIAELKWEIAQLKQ

[28] = biological target: T28, 4H458-AA; assay: two-hybrid library CCmax
T28 chain: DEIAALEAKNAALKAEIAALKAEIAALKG

[29] = biological target: T29, 4H971-AA; assay: two-hybrid library CCmax
T29 chain: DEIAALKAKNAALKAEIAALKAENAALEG

[30] = biological target: T30, 4H967-bN; assay: two-hybrid library CCNG1
T30 chain: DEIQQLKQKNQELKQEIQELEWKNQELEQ

DEIAALKAKNAALEAEIAALKAEIAALKG [4H906-AA]
interaction score ([1]; mean of both orientations): -0.00106 | interaction score [2]: 1.74

DEIAALEAEIAALKAENAALKAKIAALKG [4H94-AA]
interaction score [3]: 2.24

DEIAALKAEIAALEAENAALEAKNAALKG [4H536-AA]
interaction score ([3]; mean of both orientations): -0.957 | interaction score ([4]; mean of both orientations): -1.44 | interaction score [5]: 0.339 | interaction score ([6]; mean of both orientations): -1.07 | interaction score ([7]; mean of both orientations): -1.56 | interaction score ([8]; mean of both orientations): -1.61 | interaction score ([9]; mean of both orientations): 1.78 | interaction score ([10]; mean of both orientations): 1.35 | interaction score [11]: -0.504 | interaction score ([12]; mean of both orientations): 1.1 | interaction score ([13]; mean of both orientations): 0.302

DEIAALEAKNAALKAKIAALEAKIAALEG [4H485-AA]
interaction score ([3]; mean of both orientations): -1.46 | interaction score ([4]; mean of both orientations): 1.71 | interaction score ([5]; mean of both orientations): -1.29 | interaction score [14]: 1.06 | interaction score [6]: 1.2 | interaction score ([7]; mean of both orientations): -0.103 | interaction score ([8]; mean of both orientations): -0.153 | interaction score ([9]; mean of both orientations): -2.05 | interaction score ([10]; mean of both orientations): 1.97 | interaction score [11]: -0.968 | interaction score ([12]; mean of both orientations): -1.69 | interaction score ([13]; mean of both orientations): -1.15

DEIAALKAKNAALKAKIAALEAEIAALEG [4H993-AA]
interaction score [1]: 1.19

DEIAALKAKIAALKAENAALEAEIAALKG [4H850-AA]
interaction score ([3]; mean of both orientations): 1.79 | interaction score ([7]; mean of both orientations): -1.9 | interaction score ([8]; mean of both orientations): -1.47 | interaction score ([9]; mean of both orientations): -0.0612 | interaction score [10]: 1.89

DEIAALKAEIAALEAKNAALEAKIAALKG [4H566-AA]
interaction score ([15]; mean of both orientations): 1.95 | interaction score ([16]; mean of both orientations): -2 | interaction score ([1]; mean of both orientations): 1.6 | interaction score [17]: 2.14 | interaction score [18]: -0.483 | interaction score ([19]; mean of both orientations): -0.409 | interaction score ([20]; mean of both orientations): -0.184 | interaction score ([21]; mean of both orientations): -0.948 | interaction score ([2]; mean of both orientations): -1.33

DEIAALKAEIAALKAENAALKAKIAALEG [4H605-AA]
interaction score ([15]; mean of both orientations): -0.443 | interaction score ([16]; mean of both orientations): -1.53 | interaction score ([1]; mean of both orientations): -1.15 | interaction score [18]: -1.23 | interaction score ([19]; mean of both orientations): -0.923 | interaction score [20]: 1.29 | interaction score ([21]; mean of both orientations): -0.274 | interaction score ([2]; mean of both orientations): -1.14

DEIAALEAKNAALEAKIAALKAKIAALEG [4H429-AA]
interaction score ([15]; mean of both orientations): -0.143 | interaction score [22]: -0.728 | interaction score ([16]; mean of both orientations): -1.7 | interaction score [1]: 1.92 | interaction score ([17]; mean of both orientations): 0.0626 | interaction score [18]: -0.775 | interaction score [23]: 1.83 | interaction score ([19]; mean of both orientations): -0.809 | interaction score [20]: -1.54 | interaction score [24]: 0.468 | interaction score ([21]; mean of both orientations): 1.26 | interaction score ([2]; mean of both orientations): -0.239

DEIAALKAENAALKAEIAALEAKIAALKG [4H710-AA]
interaction score ([3]; mean of both orientations): -0.285 | interaction score [4]: 0.809 | interaction score ([6]; mean of both orientations): 1.86 | interaction score ([7]; mean of both orientations): -0.472 | interaction score ([8]; mean of both orientations): -0.464 | interaction score ([9]; mean of both orientations): -1.65 | interaction score ([10]; mean of both orientations): -1.15 | interaction score [11]: -1.31

DEIAALKAENAALEAKIAALEAKIAALKG [4H678-AA]
interaction score ([15]; mean of both orientations): 1.21 | interaction score ([16]; mean of both orientations): -1.59 | interaction score ([1]; mean of both orientations): 1.05 | interaction score [18]: -0.0211 | interaction score ([19]; mean of both orientations): -1.91 | interaction score [21]: 1.57 | interaction score ([2]; mean of both orientations): -0.716

DEIAALKAKIAALEAEIAALKAENAALKG [4H780-AA]
interaction score ([15]; mean of both orientations): -1.27 | interaction score [16]: 1.68 | interaction score ([1]; mean of both orientations): -1.51 | interaction score ([19]; mean of both orientations): -1.57 | interaction score ([2]; mean of both orientations): -1.19

DEIAALEAEIAALEAKNAALKAKNAALEG [4H63-AA]
interaction score [25]: -1.93

DEIAALKAKIAALKAKNAALEAEIAALEG [4H881-AA]
interaction score [15]: -0.685 | interaction score ([1]; mean of both orientations): 1.82 | interaction score ([2]; mean of both orientations): -1.49

DEIAALKAKIAALKAKNAALKAENAALEG [4H891-AA]
interaction score ([3]; mean of both orientations): -0.169 | interaction score ([7]; mean of both orientations): -1.86 | interaction score ([8]; mean of both orientations): -1.73 | interaction score [9]: -1.96

DEIAQLKQKNAELEQEIAELKWEIAQLKQ [4H906-bA]
interaction score [26]: -0.333 | interaction score [27]: 0.95

DEIAALKAEIAALEAKNAALKAEIAALKG [4H570-AA]
interaction score ([3]; mean of both orientations): 1.71 | interaction score ([4]; mean of both orientations): -1.47 | interaction score ([6]; mean of both orientations): -1.48 | interaction score ([7]; mean of both orientations): -1.1 | interaction score ([8]; mean of both orientations): -1.22 | interaction score ([9]; mean of both orientations): -0.736 | interaction score ([10]; mean of both orientations): 1.66 | interaction score [11]: 0.178 | interaction score [12]: 1.51 | interaction score ([13]; mean of both orientations): -0.598

DEIAALKAENAALKAKIAALKAEIAALEG [4H745-AA]
interaction score ([3]; mean of both orientations): -1.46 | interaction score ([7]; mean of both orientations): -0.807 | interaction score ([8]; mean of both orientations): -0.361 | interaction score ([9]; mean of both orientations): -1.51 | interaction score ([10]; mean of both orientations): -0.847 | interaction score [11]: -1.44

DEIAALKAKIAALEAENAALKAEIAALKG [4H794-AA]
interaction score ([15]; mean of both orientations): -0.532 | interaction score ([1]; mean of both orientations): -1.99 | interaction score [19]: 1.84 | interaction score ([2]; mean of both orientations): -1.42

DEIAALEAKNAALKAEIAALKAEIAALKG [4H458-AA]
interaction score ([3]; mean of both orientations): -1.35 | interaction score ([4]; mean of both orientations): 1.06 | interaction score ([5]; mean of both orientations): -1.46 | interaction score ([14]; mean of both orientations): -1.76 | interaction score ([6]; mean of both orientations): 1.1 | interaction score ([7]; mean of both orientations): -0.663 | interaction score ([8]; mean of both orientations): -0.173 | interaction score ([9]; mean of both orientations): -1.67 | interaction score ([10]; mean of both orientations): 1.08 | interaction score [28]: 1.87 | interaction score [11]: -1.44 | interaction score ([12]; mean of both orientations): -0.947 | interaction score [13]: -1.64

DEIAALKAKNAALEAEIAALKAKIAALEG [4H909-AA]
interaction score ([3]; mean of both orientations): -0.983 | interaction score ([7]; mean of both orientations): -1.17 | interaction score [8]: 2.08

DEIAALKAKNAALEAKIAALEAEIAALKG [4H930-AA]
interaction score ([3]; mean of both orientations): -1.34 | interaction score [7]: 1.74

DEIAALKAKNAALKAEIAALKAENAALEG [4H971-AA]
interaction score [29]: -0.816

DEIQQLKQKNQELKQEIQELEWKNQELEQ [4H967-bN]
interaction score [30]: -0.749

DEIAALKAEIAALKAKNAALEAKIAALEG [4H629-AA]
interaction score ([3]; mean of both orientations): -0.298 | interaction score ([4]; mean of both orientations): -0.399 | interaction score ([6]; mean of both orientations): -1.44 | interaction score ([7]; mean of both orientations): -1.41 | interaction score ([8]; mean of both orientations): -1.56 | interaction score ([9]; mean of both orientations): -1.48 | interaction score ([10]; mean of both orientations): -0.0456 | interaction score [11]: -1.05 | interaction score [13]: 1.86

Source: publication PMC10397247
